Data reported in patent publication US12006503B2, “Fusion proteins and methods thereof” (The Trustees of Columbia University in the City of New York, priority 2012, dated 2024).

Assays:
[1] = system: Ink4A;Arf-/- astrocytes in immunodeficient mice; assay: Subcutaneous tumor xenograft formation by lentivirus-transduced Ink4A;Arf-/- astrocytes; type: in vivo, mouse; settings: Ink4Arf-/- astrocytes expressing the construct
Text: FIG. 3B are photomicrographs showing of immunofluoresence staining of tumors from mice injected with Ink4A; Arf−/− astrocytes expressing FGFR3-TACC3 showing positivity for glioma-specific (Nestin, Oig2 and GFAP) and proliferation markers (Ki67 and pHH3). Sub-cutaneous tumors were generated by Ink4A; Arf−/− astrocytes expressing FGFR-TACC fusions.
Subcutaneous xenografts and drug treatment. […] For experiments with FGFR inhibitors, mice carrying ˜200-300 mm 3 subcutaneous tumors derived from Ink4A; Arf−/− astrocytes were randomized to receive 50 mg/kg PD173074 in 0.05 M lactate buffer (pH 5) or an equal volume of lactate buffer by oral gavage. Treatment was administered for three cycles consisting of four consecutive days followed by two days of rest. […] Data are expressed as mean±SE.

Balb 3T3 = assay: Soft agar colony assay, Balb 3T3 cells; type: cell-based; settings: Balb 3T3 cells transduced with the construct
Rat1A cells = assay: Karyotype analysis (chromosome counts, aneuploidy) of Rat1A cells; type: cell-based, rat; settings: Rat1A cells, 100 cells counted
Method: Distribution of chromosome counts of cells arrested in mitosis and analyzed for karyotypes using DAPI. Chromosomes were counted in 100 metaphase cells for each condition to determine the ploidy and the diversity of chromosome counts within the cell population. FGFR3-TACC3 fusion induces aneuploidy.
The upper panel is a karyotype analysis of Rat1A cells transduced with control or FGFR3-TACC3 lentivirus and treated with vehicle (DMSO) or PD173470 (100 nM) for five days.
Karyotype analysis. Cultured cells were colcemid (20 ng/ml) treated for 90 minutes before harvesting for karyotopic analysis as detailed in Extended Experimental procedures. At least one hundred cells in metaphase were examined for chromosome count. PMSCS was scored in cells where a majority of the sister chromosomes were no longer associated. Two-tailed unpaired t-tests with Welch's correction were performed for comparison of means analysis.
Karyotypic Analysis. The colcemid treated cells were trypsinized, centrifuged for 7 minutes at 200×g, and the cell pellet re-suspended in warmed hypotonic solution and incubated at 37° C. for 13 minutes. The swollen cells were then centrifuged and the pellet re-suspended in 8 ml of Carnoy's fixative (3:1 methanol:glacial acetic acid). The cell suspension was centrifuged and washed twice in Carnoy's fixative. After the last centrifugation, the cells were resuspended in 0.5 to 1 ml of freshly prepared fixative to produce an opalescent cell suspension. Drops of the final cell suspension were placed on clean slides and air-dried. Slides were stained with DAPI and metaphases were analyzed under a fluorescent microscope.

Rat1 [2] = assay: Subcutaneous tumor xenografts formed by transduced Rat1 cells; type: in vivo, rat; settings: Rat1 cells expressing the construct
Rat1 [3] = assay: Soft agar colony assay, Rat1 cells; type: cell-based, rat; settings: Rat1 cells transduced with the construct
Text: FGFR1-TACC1 and FGFR3-TACC3 induce anchorage-independent growth in Rat1A fibroblasts. The number of soft agar colonies was scored from triplicate samples 14 days after plating. Representative microphotographs are shown.

B1: FGFR3: wild type FGFR3 expressed by lentivirus (protein, listed as Homo sapiens)
chain: MGAPACALALCVAVAIVAGASSESLGTEQRVVGRAAEVPGPEPGQQEQLVFGSGDAVELSCPPPGGGPMGPTVWVKDGTGLVPSERVLVGPQRLQVLNASHEDSGAYSCRQRLTQRVLCHFSVRVTDAPSSGDDEDGEDEAEDTGVDTGAPYWTRPERMDKKLLAVPAANTVRFRCPAAGNPTPSISWLKNGREFRGEHRIGGIKLRHQQWSLVMESVVPSDRGNYTCVVENKFGSIRQTYTLDVLERSPHRPILQAGLPANQTAVLGSDVEFHCKVYSDAQPHIQWLKHVEVNGSKVGPDGTPYVTVLKTAGANTTDKELEVLSLHNVTFEDAGEYTCLAGNSIGFSHHSAWLVVLPAEEELVEADEAGSVYAGILSYGVGFFLFILVVAAVTLCRLRSPPKKGLGSPTVHKISRFPLKRQVSLESNASMSSNTPLVRIARLSSGEGPTLANVSELELPADPKWELSRARLTLGKPLGEGCFGQVVMAEAIGIDKDRAAKPVTVAVKMLKDDATDKDLSDLVSEMEMMKMIGKHKNIINLLGACTQGGPLYVLVEYAAKGNLREFLRARRPPGLDYSFDTCKPPEEQLTFKDLVSCAYQVARGMEYLASQKCIHRDLAARNVLVTEDNVMKIADFGLARDVHNLDYYKKTTNGRLPVKWMAPEALFDRVYTHQSDVWSFGVLLWEIFTLGGSPYPGIPVEELFKLLKEGHRMDKPANCTHDLYMIMRECWHAAPSQRPTFKQLVEDLDRVLTVTSTDEYLDLSAPFEQYSPGGQDTPSSSSSGDDSVFAHDLLPPAPPSSGGSRT
Subcutaneous tumor xenografts (tumors formed/injections) [1]: 0/5
soft agar colonies (Balb 3T3): 0
Average variation from mean number (Rat1A cells): 1.3
Mean number (chromosomal number) (Rat1A cells): 42.1
Percent aneuploidy (Rat1A cells): 33%
Range (chromosomal number) (Rat1A cells): 35-44
Subcutaneous tumor xenografts (tumors formed/injections) (Rat1 [2]): 0/5
soft agar colonies (Rat1 [3]): 0
